Key:
[1] = tested on: human pancreatic cancer BxPC3; experiment: Test Example A-1 intratumor distribution test; format: in vivo, nude mouse; details: 50 mg/kg as converted to 7-ethyl-10-hydroxycamptothecin, iv once, 30 minutes after administration
Excerpt: Thirty minutes after the administration, blood was removed from the mouse under isoflurane anesthesia, frozen embedded slices of the removed tumor were produced, and fluorescence was observed.

[2] = Test Example A-2 intrarenal distribution test; format: in vivo, C.B-17SCID mouse; details: 50 mg/kg as converted to 7-ethyl-10-hydroxycamptothecin, iv once, 30 minutes after administration
[3] = tested on: human colorectal cancer Col-5-JCK and Co-3-KIST, human breast cancer MC-19-JCK; details: 75 or 50 mg/kg as converted to Ganetespib, iv once, compared to Comparative Example B-1
Method: The tumor volume was determined by measuring the major axis (L: mm) and the minor axis (W: mm) of the tumor, and calculating the volume by the calculation formula: (L×W^2)/2.

[4] = Light scattering intensity of 1 mg/mL aqueous solution, relative to toluene; format: physicochemical
Method: Regarding the measurement sample for the scattering intensity measurement, a solution obtained by adding ultrapure water to a physiologically active substance-conjugated block copolymer to obtain a concentration of 1 mg/mL, dissolving the block copolymer by irradiating the mixture with ultrasonic waves for 10 minutes under ice cooling, and then filtering the solution through a 0.2-μm membrane filter, was used.
Toluene (manufactured by Junsei Chemical Co., Ltd., special grade) that was used for the measurement of the light scattering intensity, was used after being filtered three times through a 0.2-μm membrane filter.

[5] = tested on: human pancreatic cancer BxPC3; experiment: Test Example C-1 intratumor distribution test; format: in vivo, nude mouse; details: 5 mg/kg as converted to 2-(2-aminoethoxy)-9-(diethylamino)-5H-benzo[a]phenoxazin-5-one, iv once, one hour after administration
Excerpt: (§1) A tumor mass of human pancreatic cancer BxPC3 that had been subcultured by subcutaneous transplantation in a BALB/c nude mouse was cut into a block having a size of about 3 mm on each side, and this block was subcutaneously transplanted on the dorsal side of a nude mouse using a trocar. […] One hour after the administration, blood was removed from the mouse under isoflurane anesthesia, frozen embedded slices of the removed tumor and the kidneys were produced, and fluorescence was observed.

[6] = Test Example C-1 intrarenal distribution test; format: in vivo, nude mouse; details: 5 mg/kg as converted to 2-(2-aminoethoxy)-9-(diethylamino)-5H-benzo[a]phenoxazin-5-one, iv once, one hour after administration
Excerpt: as §1

7-ethyl-10-hydroxycamptothecin (EHC) and 2-(2-aminoethoxy)-9-(diethylamino)-5H-benzo[a]phenoxazin-5-one Conjugate of polyethylene glycol (2 Kilodaltons)-polyglutamic Acid (7.6 Polymer) Block Copolymer [Example A-4]
tissue distribution in tumor slices (fluorescence) [1]: could penetrate into deep parts of a tumor tissue
tissue distribution in kidney slices (fluorescence) [2]: fluorescent signals were observed in the blood vessels and the renal tubules of the kidneys

4-isopropyl-6-(4-(1-methyl-1H-indol-5-yl)-5-methylene-4,5-dihydro-1H-1,2,4-triazol-3-yl)benzene-1,3-diol Conjugate of polyethylene glycol (2 Kilodaltons)-polyglutamic Acid (7.9 Polymer) Block Copolymer [Example B-1]
antitumor effect [3]: superior effect in both subcutaneous tumor models at the same dose

2-(2-aminoethoxy)-9-(diethylamino)-5H-benzo[a]phenoxazin-5-one Conjugate of polyethylene glycol (2 Kilodaltons)-α,β-polyaspartic Acid (12.5 Polymer) Block Copolymer [Comparative Example C-3]
relative ratio between the light scattering intensity and the light scattering intensity of toluene ([4]; 1 mg/mL aqueous solution vs standard toluene solution under the same conditions): less than twice
self-association in aqueous solution ([4]; aqueous solution): non-associating
tissue distribution in tumor slices (fluorescence) [5]: migration and accumulation in the tumor tissue was low
tissue distribution in kidney slices (fluorescence) [6]: fluorescence was observed in the renal tubules

7-ethyl-10-hydroxycamptothecin (EHC) and 2-(2-aminoethoxy)-9-(diethylamino)-5H-benzo[a]phenoxazin-5-one Conjugate of polyethylene glycol (12 Kilodaltons)-polyglutamic Acid (25 Polymer) Block Copolymer [Comparative Example A-4, reference compound]
tissue distribution in tumor slices (fluorescence) [1]: did not penetrate into deep parts of the tumor tissue
tissue distribution in kidney slices (fluorescence) [2]: fluorescence was not recognized in areas other than the blood vessels of the kidneys
